What was measured:
[1] = molecular target: the molecule itself; assay: crystal structure; PqiC-His in DDM; 3.2 Å; two chains in the asymmetric unit, octameric toroid by the symmetry of the unit cell; interface analysed with PDBePISA
[2] = molecular target: T1, PqiB (residues 1–546) with a C-terminal hexa-histidine tag, of the PqiAB construct (E. coli, UniProt P43671 1-546); assay: QCM-D; PqiC-Strep in a supported DMPC bilayer on a silicon sensor; PqiAB-DMPC proteoliposomes flowed over, then buffer; 25 °C, 0.1 mL/min; 20 mM Bis-Tris Propane, 150 mM NaCl, pH 8.5; details: both partners purified
T1 construct: PqiB, periplasm-spanning MCE family protein of E. coli, residues 1–546; Always present together with PqiA in the experiments; also called hexameric PqiB; source: E. coli C43 (DE3), co-expressed with PqiA, purified (Ni-NTA, SEC) in DDM, reconstituted into DMPC proteoliposomes; not shown: His6, C-terminal, kept
T1 sequence (looked up): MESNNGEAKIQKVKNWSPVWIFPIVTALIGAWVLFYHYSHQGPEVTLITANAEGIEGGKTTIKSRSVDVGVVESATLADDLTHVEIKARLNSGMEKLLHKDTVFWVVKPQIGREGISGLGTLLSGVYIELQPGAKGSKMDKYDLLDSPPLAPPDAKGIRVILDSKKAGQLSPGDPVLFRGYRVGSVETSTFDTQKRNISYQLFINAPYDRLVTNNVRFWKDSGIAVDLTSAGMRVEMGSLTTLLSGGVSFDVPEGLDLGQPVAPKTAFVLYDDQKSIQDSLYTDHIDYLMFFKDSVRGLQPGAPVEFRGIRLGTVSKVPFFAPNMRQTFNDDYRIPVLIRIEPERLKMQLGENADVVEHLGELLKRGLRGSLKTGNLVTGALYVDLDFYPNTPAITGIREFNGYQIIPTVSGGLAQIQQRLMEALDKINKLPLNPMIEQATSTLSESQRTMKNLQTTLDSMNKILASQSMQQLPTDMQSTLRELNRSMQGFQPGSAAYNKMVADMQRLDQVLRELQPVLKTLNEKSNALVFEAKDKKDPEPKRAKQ

[3] = molecular target: T2, PqiAB subcomplex (PqiA residues 1–417 and PqiB residues 1–546, C-terminal hexa-histidine tag) (E. coli, UniProt P0AFL9 1-417; P43671 1-546); assay: neutron reflectometry; PqiC in a supported dDMPC bilayer on silicon; PqiAB-DMPC proteoliposomes (0.01 mg/mL PqiAB) incubated 30 minutes, washed; 20 mM BTP, 150 mM NaCl, pH 8.5; 25 °C; isotopic contrast variation; details: both partners purified
T2 construct: PqiA, integral inner membrane protein of E. coli, residues 1–417; PqiB, periplasm-spanning MCE family protein of E. coli, residues 1–546; also called purified PqiAB subcomplex; PqiAB-proteoliposomes; copies: + 6
T2 sequence (looked up) 1: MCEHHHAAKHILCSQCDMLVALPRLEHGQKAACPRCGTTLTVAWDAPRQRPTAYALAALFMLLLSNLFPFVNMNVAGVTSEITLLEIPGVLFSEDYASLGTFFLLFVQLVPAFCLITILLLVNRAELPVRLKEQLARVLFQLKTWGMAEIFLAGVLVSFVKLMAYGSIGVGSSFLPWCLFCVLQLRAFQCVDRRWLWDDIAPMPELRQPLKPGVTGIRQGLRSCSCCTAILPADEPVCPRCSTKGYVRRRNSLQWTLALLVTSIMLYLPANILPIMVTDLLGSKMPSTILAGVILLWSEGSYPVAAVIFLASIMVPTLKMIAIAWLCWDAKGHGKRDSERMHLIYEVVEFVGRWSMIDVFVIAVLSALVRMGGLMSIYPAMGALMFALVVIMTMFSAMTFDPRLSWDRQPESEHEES
T2 sequence (looked up) 2: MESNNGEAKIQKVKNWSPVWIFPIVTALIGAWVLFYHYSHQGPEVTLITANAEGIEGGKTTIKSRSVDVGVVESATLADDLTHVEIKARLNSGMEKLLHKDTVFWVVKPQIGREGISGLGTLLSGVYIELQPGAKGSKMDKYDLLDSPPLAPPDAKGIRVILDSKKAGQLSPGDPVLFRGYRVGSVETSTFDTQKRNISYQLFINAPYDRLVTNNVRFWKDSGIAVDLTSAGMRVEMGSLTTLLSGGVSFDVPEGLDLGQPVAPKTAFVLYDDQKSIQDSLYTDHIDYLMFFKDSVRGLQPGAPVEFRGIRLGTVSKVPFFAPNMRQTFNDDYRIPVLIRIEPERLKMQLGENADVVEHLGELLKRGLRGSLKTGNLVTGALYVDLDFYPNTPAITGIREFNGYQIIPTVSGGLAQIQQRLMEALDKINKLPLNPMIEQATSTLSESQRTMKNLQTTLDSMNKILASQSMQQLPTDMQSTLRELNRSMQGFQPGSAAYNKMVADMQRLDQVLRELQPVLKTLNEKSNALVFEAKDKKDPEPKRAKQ

B1: E. coli PqiC (residues 1–187) with a C-terminal hexa-histidine tag (natural protein, UniProt P0AB10 16-187, looked up)
chain: CSSGEINKNYYQLPVVQSGTQSTASQGNRLLWVEQVTVPDYLAGNGVVYQTSDVKYVIANNNLWASPLDQQLRNTLVANLSTQLPGWVVASQPLGSAQDTLNVTVTEFNGRYDGKVIVSGEWLLNHQGQLIKRPFRLEGVQTQDGYDEMVKVLAGVWSQEAASIAQEIKRLP
modifications: N-terminally acylated Cysteine (C16); the construct is 'presumably processed and lipidated in the same manner as the native lipoprotein'
notes: signal peptide in the construct; the N-terminal signal peptide is called residues 1–16 in the methods, while the mature lipoprotein is said to begin at the acylated C16; Octamer by the crystal's symmetry (two chains in the asymmetric unit); also called native PqiC; full length PqiC; source: E. coli C43 (DE3), membrane fraction solubilised in DDM, purified (Ni-NTA, SEC)
In the case of B1, the “stoichiometry N” value [1] is reported as 8.

B2: PqiC-Strep, E. coli PqiC residues 1–186 with a C-terminal StrepTag II (natural protein, UniProt P0AB10 16-186, looked up)
chain: CSSGEINKNYYQLPVVQSGTQSTASQGNRLLWVEQVTVPDYLAGNGVVYQTSDVKYVIANNNLWASPLDQQLRNTLVANLSTQLPGWVVASQPLGSAQDTLNVTVTEFNGRYDGKVIVSGEWLLNHQGQLIKRPFRLEGVQTQDGYDEMVKVLAGVWSQEAASIAQEIKRL
modifications: lipidation of Cys16 (the paper: 'a native PqiC construct was used')
notes: signal peptide in the construct; Stood in a supported DMPC bilayer on a silicon surface; also called PqiC (in QCM-D and NR); surface-tethered PqiC octamer
B2: binds [2]; binds [3].

From article PMC10897342, “An octameric PqiC toroid stabilises the outer-membrane interaction of the PqiABC transport system” (EMBO Reports, 2024)
